Laboratory results: the RNAGym collection of RNA variant scans (doi:10.7554/elife.80360)

B1: Hairpin Ribozyme (parent)
chain: GUCCUCUUUCACGUGCGCGUGAAAGAGAGAAGUGAACCAGAGAAACACACGUUGUGGUAUAUUACCUGGUA

Variants of: B1
Test: self-cleavage, relative activity (ratio to wild type); higher = more cleavage; co-transcriptional

First: GUCCUCUUUCACGUGCGCGUGAAAGAGAGAAGUGAACCAGAGAAACACACGUUGUGUUAUAUUACCUGGUA [G57U]
Second: GUCCUCUUUCACGUGCGCGUGAAAGAGAGAAGUGAACCAGAGAAACACACGUUGUGGCAUAUUACCUGAUA [U58C G69A]
The self-cleavage of the first is lower: 0.273 for the first, 0.421 for the second.

Compared with GUCCUCUUUCACGUGCGCGUGAAAGAGAGAAGUGAACCAGAGAAACACACGUUGUGGCAUAUUACCUGCUA [U58C G69C], GUCCUCUUUCACGUGCGCGUGAAAGAGAGAAGUGAACCAGAGAAACACACGUUGUGGUCUAUUACCUGGUA [A59C] is lower in self-cleavage: 0.259 for the first, 0.171 for the second.

First: GUCCUCUUUCACGUGCGCGUGAAAGAGAGAAGUGAACCAGAGAAACACACGUUGUGGGAUAUUACUUGGUA [U58G C66U]
Second: GUCCUCUUUCACGUGCGCGUGAAAGAGAGAAGUGAACCAGAGAAACACACGUUGUGGGAUAUUACAUGGUA [U58G C66A]
The self-cleavage of the first is higher: 0.403 for the first, 0.281 for the second.

Compared with GUCCUCUUUCACGUGCGCGUGAAAGAGAGAAGUGAACCAGAGAAACACACGUUGUGGAAAAUUACCUGGUA [U58A U60A], GUCCUCUUUCACGUGCGCGUGAAAGAGAGAAGUGAACCAGAGAAACACACGUUGUGGAAGAUUACCUGGUA [U58A U60G] is higher in self-cleavage: 0.509 for the first, 0.646 for the second.

Compared with GUCCUCUUUCACGUGCGCGUGAAAGAGAGAAGUGAACCAGAGAAACACACGUUGUGGGAUAUUUCCUGGUA [U58G A64U], GUCCUCUUUCACGUGCGCGUGAAAGAGAGAAGUGAACCAGAGAAACACACGUUGUGGCAUAAUACCUGGUA [U58C U62A] is higher in self-cleavage: 0.218 for the first, 0.24 for the second.

First: GUCCUCUUUCACGUGCGCGUGAAAGAGAGAAGUGAACCAGAGAAACACACGUUGUGGGAUAUUACCUGGUG [U58G A71G]
Second: GUCCUCUUUCACGUGCGCGUGAAAGAGAGAAGUGAACCAGAGAAACACACGUUGUGGGAUAUUACCUGGUC [U58G A71C]
The self-cleavage of the first is lower: 0.935 for the first, 1.07 for the second.

Going from GUCCUCUUUCACGUGCGCGUGAAAGAGAGAAGUGAACCAGAGAAACACACGUUGUGGGAUAUUACCUGGUU [U58G A71U] to GUCCUCUUUCACGUGCGCGUGAAAGAGAGAAGUGAACCAGAGAAACACACGUUGUGGCAUAUUACCUGGCA [U58C U70C], the self-cleavage rises from 0.455 to 0.945.

Compared with GUCCUCUUUCACGUGCGCGUGAAAGAGAGAAGUGAACCAGAGAAACACACGUUGUGGUCUAUUACCGGGUA [A59C U67G], GUCCUCUUUCACGUGCGCGUGAAAGAGAGAAGUGAACCAGAGAAACACACGUUGUGGGAUAUUACCUGGUA [U58G] is higher in self-cleavage: 0.24 for the first, 0.788 for the second.

First: GUCCUCUUUCACGUGCGCGUGAAAGAGAGAAGUGAACCAGAGAAACACACGUUGUGGCAUAUUACCUGGUA [U58C]
Second: GUCCUCUUUCACGUGCGCGUGAAAGAGAGAAGUGAACCAGAGAAACACACGUUGUGGAAUAUUACCUGGUA [U58A]
The self-cleavage of the first is higher: 0.994 for the first, 0.742 for the second.

Going from GUCCUCUUUCACGUGCGCGUGAAAGAGAGAAGUGAACCAGAGAAACACACGUUGUGGUCUAAUACCUGGUA [A59C U62A] to GUCCUCUUUCACGUGCGCGUGAAAGAGAGAAGUGAACCAGAGAAACACACGUUGUGGCAUAUUACGUGGUA [U58C C66G], the self-cleavage falls from 0.159 to 0.154.

First: GUCCUCUUUCACGUGCGCGUGAAAGAGAGAAGUGAACCAGAGAAACACACGUUGUGGAAUAUUAACUGGUA [U58A C65A]
Second: GUCCUCUUUCACGUGCGCGUGAAAGAGAGAAGUGAACCAGAGAAACACACGUUGUGGAAUAUUAUCUGGUA [U58A C65U]
The self-cleavage of the first is higher: 0.503 for the first, 0.203 for the second.

Going from GUCCUCUUUCACGUGCGCGUGAAAGAGAGAAGUGAACCAGAGAAACACACGUUGUGGAAUAUUACCUGGUU [U58A A71U] to GUCCUCUUUCACGUGCGCGUGAAAGAGAGAAGUGAACCAGAGAAACACACGUUGUGGAAUAUUACCUGGUC [U58A A71C], the self-cleavage rises from 0.391 to 1.19.

Going from GUCCUCUUUCACGUGCGCGUGAAAGAGAGAAGUGAACCAGAGAAACACACGUUGUGGGGUAUUACCUGGUA [U58G A59G] to GUCCUCUUUCACGUGCGCGUGAAAGAGAGAAGUGAACCAGAGAAACACACGUUGUGGCAUAUUACCGGGUA [U58C U67G], the self-cleavage rises from 0.143 to 0.241.

Going from GUCCUCUUUCACGUGCGCGUGAAAGAGAGAAGUGAACCAGAGAAACACACGUUGUGGAAUAUCACCUGGUA [U58A U63C] to GUCCUCUUUCACGUGCGCGUGAAAGAGAGAAGUGAACCAGAGAAACACACGUUGUGGAAUAUGACCUGGUA [U58A U63G], the self-cleavage falls from 0.307 to 0.194.

First: GUCCUCUUUCACGUGCGCGUGAAAGAGAGAAGUGAACCAGAGAAACACACGUUGUGUUAUAUUACCUGGGA [G57U U70G]
Second: GUCCUCUUUCACGUGCGCGUGAAAGAGAGAAGUGAACCAGAGAAACACACGUUGUGUUAUAUUAGCUGGUA [G57U C65G]
The self-cleavage of the first is higher: 0.225 for the first, 0.134 for the second.

Going from GUCCUCUUUCACGUGCGCGUGAAAGAGAGAAGUGAACCAGAGAAACACACGUUGUGGCUUAUUACCUGGUA [U58C A59U] to GUCCUCUUUCACGUGCGCGUGAAAGAGAGAAGUGAACCAGAGAAACACACGUUGUGGUCUAUUCCCUGGUA [A59C A64C], the self-cleavage falls from 0.192 to 0.111.

First: GUCCUCUUUCACGUGCGCGUGAAAGAGAGAAGUGAACCAGAGAAACACACGUUGUGGUCUAUUGCCUGGUA [A59C A64G]
Second: GUCCUCUUUCACGUGCGCGUGAAAGAGAGAAGUGAACCAGAGAAACACACGUUGUGGAAUAUUACCUCGUA [U58A G68C]
The self-cleavage of the first is lower: 0.1 for the first, 0.194 for the second.

Compared with GUCCUCUUUCACGUGCGCGUGAAAGAGAGAAGUGAACCAGAGAAACACACGUUGUGGGAUAUUACCUGGCA [U58G U70C], GUCCUCUUUCACGUGCGCGUGAAAGAGAGAAGUGAACCAGAGAAACACACGUUGUGGAAUAUUGCCUGGUA [U58A A64G] is lower in self-cleavage: 0.84 for the first, 0.247 for the second.

First: GUCCUCUUUCACGUGCGCGUGAAAGAGAGAAGUGAACCAGAGAAACACACGUUGUGGUCUAUAACCUGGUA [A59C U63A]
Second: GUCCUCUUUCACGUGCGCGUGAAAGAGAGAAGUGAACCAGAGAAACACACGUUGUGGUCUUUUACCUGGUA [A59C A61U]
The self-cleavage of the first is lower: 0.169 for the first, 0.284 for the second.
